Experimental data published in publication PMC5339904.

What was measured:
[1] = biological target: glycophorin A transmembrane domain G83I mutant, frame GpA+1, in BLaTM hybrid proteins; assay: split reporter (BiFC, NanoBiT); BLaTM 1.2 (ompA signal) in E. coli JM83; 133 μM arabinose plus 0.3 mM IPTG; ampicillin LD50 given relative to wild-type GpA+1 (=100%); library pairs first selected on ampicillin, then measured one by one; labels are N-BLa/C-BLa
[2] = biological target: glycophorin A transmembrane domain G83I mutant, frame GpA+1, in BLaTM hybrid proteins; assay: BLaTM 1.2 (split β-lactamase complementation, ampicillin resistance); conditions: E. coli JM83, 133 μM arabinose, n = 3, read off a plot
[3] = biological target: glycophorin A transmembrane domain G83I mutant, frame GpA+1, in BLaTM hybrid proteins; assay: BLaTM 1.1 (split β-lactamase complementation, ampicillin resistance); conditions: E. coli BL21; n = 4 separate transformations; parent: est. 160 µg/ml; read off a plot
[4] = biological target: GCN4 leucine zipper fused to the β-lactamase fragments N-BLa and C-BLa; assay: split reporter (BiFC, NanoBiT); split β-lactamase; soluble N-BLa and C-BLa fusions co-expressed in the E. coli periplasm; read-out: ampicillin LD50 in liquid media by optical density
[5] = biological target: quiescin sulfhydryl oxidase 2 transmembrane domain S8A mutant, in BLaTM hybrid proteins; assay: BLaTM 1.1 (split β-lactamase complementation, ampicillin resistance); conditions: E. coli BL21; n = 4 separate transformations; parent: est. 80 µg/ml; read off a plot
[6] = biological target: GpA0 G83I; assay: BLaTM 1.2 (split β-lactamase complementation, ampicillin resistance); conditions: E. coli JM83, 133 μM arabinose, n = 3, read off a plot

Chain of GCN4 leucine zipper fused to the β-lactamase fragments N-BLa and C-BLa (P03069 whole entry, the tested form may be a part): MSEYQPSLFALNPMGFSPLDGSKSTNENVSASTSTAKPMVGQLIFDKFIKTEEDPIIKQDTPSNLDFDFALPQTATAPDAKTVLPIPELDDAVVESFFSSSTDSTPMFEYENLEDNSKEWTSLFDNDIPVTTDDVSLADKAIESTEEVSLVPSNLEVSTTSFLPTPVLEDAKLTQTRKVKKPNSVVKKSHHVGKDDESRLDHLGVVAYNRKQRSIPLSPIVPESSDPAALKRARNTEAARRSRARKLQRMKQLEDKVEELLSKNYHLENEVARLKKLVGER

Q: “glycophorin A transmembrane domain G83I mutant, frame GpA+1, in BLaTM hybrid proteins (domain or fragment)” was tested. Which LD50 in % of GpA+1 wt (% (GpA+1 wt = 100%)) [1] did it give?
A: 29

Q: How did the other: LD50 c(Amp) ([2]; 0.1 mM IPTG) turn out when “glycophorin A transmembrane domain, wild type, frame GpA+1, in BLaTM hybrid proteins G83I” was run?
A: 120 µg/mL

Q: And the other: LD50 c(Amp) ([2]; 0.2 mM IPTG)?
A: 70 µg/mL

Q: And the other: LD50 c(Amp) ([2]; 0.3 mM IPTG, parent: est. 270 µg/ml)?
A: 65 µg/mL

Q: And the other: LD50 c(Amp) ([2]; 0.4 mM IPTG, parent: est. 140 µg/ml)?
A: 43 µg/mL

Q: What about the other: LD50 c(Amp) ([2]; 0.5 mM IPTG, parent: est. 100 µg/ml) of the same substance?
A: 32 µg/mL

Q: And the other: LD50 c(Amp) ([2]; 0.7 mM IPTG, parent: est. 62 µg/ml)?
A: 27 µg/mL

Q: What about the other: LD50 c(Amp) [3] of the same substance?
A: 16 µg/mL

Q: Which fold rise of the ampicillin LD50 on co-expression of both fragments [4] does the source give for “GCN4 leucine zipper fused to the β-lactamase fragments N-BLa and C-BLa” here?
A: 40 fold

Q: How did the other: LD50 c(Amp) [5] turn out when “quiescin sulfhydryl oxidase 2 transmembrane domain, wild type, in BLaTM hybrid proteins S8A” was run?
A: 38 µg/mL

Q: How did the other: LD50 c(Amp) ([6]; 0.1 mM IPTG, parent: est. 230 µg/ml) turn out when GpA0 wt G83I was run?
A: 150 µg/mL

Q: What about the other: LD50 c(Amp) ([6]; 0.2 mM IPTG, parent: est. 99 µg/ml) of the same substance?
A: 73 µg/mL

Q: What about the other: LD50 c(Amp) ([6]; 0.3 mM IPTG, parent: est. 80 µg/ml) of the same substance?
A: 52 µg/mL

Q: What about the other: LD50 c(Amp) ([6]; 0.4 mM IPTG, parent: est. 61 µg/ml) of the same substance?
A: 38 µg/mL

Q: And the other: LD50 c(Amp) ([6]; 0.7 mM IPTG, parent: est. 30 µg/ml)?
A: 24 µg/mL
